Assay results as given in patent publication US7384912B2, “Treatment of bone disorders with skeletal anabolic drugs” (Osteotrophin, LLC, priority 2002, dated 2008).
No end group written: not given here.

Experiments:
[1] = test system: patients with osteoporosis; details: cited from earlier work; for increase in lumbar spine bone mineral density: two to three years of administration
[2] = biological target: T1, PTH/PTHrP receptors in human renal cortical membranes (RCM) (Homo sapiens, UniProt Q03431); test: Competition binding of 125I-(Tyr36)hPTHrP-(1-36)NH2 to human renal cortical membranes
T1 sequence (Q03431 27-593): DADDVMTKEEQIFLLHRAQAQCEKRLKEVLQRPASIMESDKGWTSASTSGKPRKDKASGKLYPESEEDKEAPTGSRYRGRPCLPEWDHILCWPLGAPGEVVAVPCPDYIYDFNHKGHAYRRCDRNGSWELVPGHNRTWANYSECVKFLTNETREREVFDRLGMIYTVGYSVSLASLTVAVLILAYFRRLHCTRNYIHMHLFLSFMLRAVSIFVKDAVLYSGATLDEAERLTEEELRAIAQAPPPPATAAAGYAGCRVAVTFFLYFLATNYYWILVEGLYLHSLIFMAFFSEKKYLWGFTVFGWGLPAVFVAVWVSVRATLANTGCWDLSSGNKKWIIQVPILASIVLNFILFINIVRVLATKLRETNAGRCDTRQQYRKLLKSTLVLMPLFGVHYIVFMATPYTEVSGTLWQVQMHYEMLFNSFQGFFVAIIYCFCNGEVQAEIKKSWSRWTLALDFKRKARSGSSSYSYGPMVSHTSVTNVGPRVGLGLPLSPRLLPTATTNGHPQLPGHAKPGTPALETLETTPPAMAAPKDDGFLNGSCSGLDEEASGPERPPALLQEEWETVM
Procedure: All steps were performed in the presence of the following protease inhibitors: aprotinin [10 Kallikrein inhibitor units (KIU/ml], pepstatin (5 μg/ml), leupeptin (45 μg/ml), and phenylmethanesulfanylfluoride (10 μg/ml). Normal human kidney cortex was from four separate nephrectomy specimens removed for localized transitional cell carcinoma, renal cell carcinoma, or benign cysts. Renal function in all individuals was normal as assessed by serum creatinine and pyelography. Membranes were pooled, aliquoted, and stored at −70° C. for later use.
Human RCM were added to a final concentration of 90 μg/ml. […] The incubation time of 30 min was used for subsequent equilibrium binding competition studies.
Statistical differences were assessed by paired and unpaired two-tailed Student's t test.

[3] = biological target: T2, PTH/PTHrP receptors on SaOS-2 intact cells (Homo sapiens, UniProt Q03431); test: Competition binding of 125I-(Tyr36)hPTHrP-(1-36)NH2 to SaOS-2 intact cells; details: intact cells, 15° C., 150 min
T2 sequence (Q03431 27-593): T1 sequence (Q03431 27-593)
Procedure: The medium was changed every other day, and studies were performed at 5-7 days post confluence. Cell numbers were determined using a Coulter counter.
Binding studies were conducted at 15° C. in the presence of chymostatin (100 μg/ml) and bacitracin (200 μg/ml). […] The incubation time of 150 min was therefore used for competitive binding studies.

[4] = biological target: T3, PTH/PTHrP receptors in SaOS-2 membranes (Homo sapiens, UniProt Q03431); test: Competition binding of 125I-(Tyr36)hPTHrP-(1-36)NH2 to SaOS-2 membranes; details: 30° C., 60 min
T3 sequence (Q03431 27-593): T1 sequence (Q03431 27-593)
Procedure: Briefly, postconfluent cells in 150 cm^2 flasks were scraped into membrane buffer [10 mM Tris HCl (pH 7.5), 0.2 mM MgCl2, 0.5 mM EGTA, 1 mM dithiothreitol, leupeptin 45 μg/ml, pepstatin 5 μg/ml, aprotinin 10 KIU/ml, and phenylmethane sulfanyl-fluoride 10 μg/ml] at 0° C. Cell disruption was achieved by sonification and the suspension was centrifuged at 13,000×g for 15 min at 4° C. […] The suspension was layered onto a cushion of the membrane buffer containing 45% sucrose and centrifuged at 70,000×g for 30 min at 4° C. […] Protein concentrations were determined by the method of Lowry using BSA as standard.
The binding assay for SaOS-2 membranes was conducted as for human RCM. Membranes were added to a final concentration of 112.5 μg/ml and specific binding reached equilibrium by 60 min at 30° C.

In the case of vitamin D, the “increase in lumbar spine bone mineral density” value [1] is given as roughly 2%.

For PTH(1-84), the “hypercalcemia, serum calcium” value ([1]; doses of approximately 40 micrograms) is given as “up to 15 mg/dl”.

In the case of `O=C(c1ccc(OCCN2CCCCC2)cc1)c1c(-c2ccc(O)cc2)sc2cc(O)ccc12` [raloxifene], the “increase in lumbar spine bone mineral density” value [1] is given as roughly 3%.

Work on “SVSEMQLMHNLGEHRHTVERQDWLQMKLQDVHSA-NH2 [cPTH-(1-34)NH2, Chicken PTH-(1-34)amide]” yielded an IC50 ([2]; human RCM, 30° C., 30 min, read-out: Binding (IC50) Kidney membranes) of 21.5 ± 8.5 nM.

In the case of “hPTHrP-(37-74) (RATSEVSPNSKPSPNTKNHPVRFGSDDEGRYLTQETNK) [Human PTHrP fragment 37-74 prepared by solid phase synthesis]”, the “Binding (IC50) Kidney membranes” value ([2]; human RCM, 30° C., 30 min) is reported as “did not inhibit binding”, the “Binding (IC50) SaOS cells” value [3] is reported as “did not inhibit binding” and the “Binding (IC50) SaOS membranes” value [4] is reported as “did not inhibit binding”.

B1: bPTH-(1-84) (protein)
chain: AVSEIQFMHNLGKHLSSMERVEWLRKKLQDVHNFVALGASIAYRDGSSQRPRKKEDNVLVESHQKSLGEADKADVDVLIKAKPQ
notes: Bovine full-length parathyroid hormone from the National Hormone and Pituitary Program
With B1 the “relative affinity less than the amino-terminal analogs” value ([2]; RCM and SaOS-2 membranes) was “approximately 10 fold”.
